Test results: patent US20230338564A1, “NEODEGRADER CONJUGATES” (Orum Therapeutics, Inc., priority 2020, published 2023)

Test system: RD-ES cell line
Test: In vitro antiproliferation assay, General Procedure 2 (CCK-8)
Format: cell-based
Settings: Ewing’s sarcoma
Source text: Cell Culture: Cell lines were obtained from the American Type Culture Collection (ATCC, Manassas, VA, USA) or Deutsche Sammlung von Mikroorganismen und Zellkulturen (DSMZ, Braunschweig, Germany) and maintained according to the culturing conditions specified by ATCC or DSMZ. Cells were thawed out and maintained in culture for at least two passages before proceeding with experimental conditions.
Cytotoxicity assays: For adherent cell lines, the cells were dissociated with enzyme-free PBS-based cell dissociation buffer (Gibco, USA) and plated on tissue culture treated 96-well flat bottom polystyrene plates (Costar, Corning, USA) at appropriate cell densities depending on doubling time of the cells. 18 hours after plating, cells were treated with test articles at appropriate concentrations starting at 100 nM and diluted in 4-fold serial dilutions. For suspension cell lines, the cells were seeded on the same day of treatment and cells were treated as described above. Adherent cells were treated for 5 days and suspension cells were treated for 3 days. Cell proliferation was assessed using the Cell Counting Kit-8 (CCK-8, Dojindo Laboratories, Japan) and measurements were obtained using the Promega GloMax Discover plate reader (Promega, USA). Data were analyzed using GraphPad Prism software (GraphPad Software, San Diego, CA). All data points were obtained from technical triplicates and the experiments were validated using three biological replicates.

B1: Ontuxizumab-Compound (Ia) (conjugate, chains of the INN, looked up)
VH: QVQLQESGPGLVRPSQTLSLTCTASGYTFTDYVIHWVKQPPGRGLEWIGYINPYDDDTTYNQKFKGRVTMLVDTSSNTAYLRLSSVTAEDTAVYYCARRGNSYDGYFDYSMDYWGSGTPVTVSS
VL: DIQMTQSPSSLSASVGDRVTITCRASQNVGTAVAWLQQTPGKAPKLLIYSASNRYTGVPSRFSGSGSGTDYTFTISSLQPEDIATYYCQQYTNYPMYTFGQGTKVQIK
modifications: conjugated to Compound (Ia)
B1 gave an IC50 of 0.0273 nM.
